# Values quoted from earlier work, collected in patent publication US20140378381A1 (LATITUDE PHARMACEUTICALS, INC., priority 2011, published 2014).
# What was measured:
# [1] = after injection
substance,measurement,setting,value
glucagon,onset of action,[1],5 to 20 min
same,glucagon decomposed into degradation products,"acidic solution (pH 2-4), 24 hours at 37° C.",5-70%
same,aggregation in aqueous solution,aqueous solutions of pH 3 or less,aggregate to form a gel within an hour
same,solubility in water,physiological pH (pH 4-8),insoluble
